Read-outs that look alike come from different tables or passages of the source. *1 amine or outer side, *2 acyl side, *3 side chain or, on linkers, in order; H or OH if unused. Where a SMILES comes first, the peptide text is derived from it. Where no end group is shown, it is not given here. Side-chain parts run from the residue outwards. [ ]: non-standard residue; d: D form. The star is where a group is joined. X1 = 5‑aminoethylsulfonamide isoquinoline, O=S(=O)(NCCN*)c1cccc2cnccc12; Isoquinoline5sulfonyl = O=S(=O)(c1cccc2cnccc12)*; X3 = O=C(OC[C@H](Cc1ccccc1)N[*:1])[*:2]; Ethylenediamine = C(CN[*:2])N[*:1]; hLeu = CC(C)CC[C@H](N)C(=O)O; GltNH2 = not defined here; Nle = CCCC[C@H](N)C(=O)O; Orn = NCCC[C@H](N)C(=O)O; Dab = NCC[C@H](N)C(=O)O; Nva = CCC[C@H](N)C(=O)O; Abu = CC[C@H](N)C(=O)O; Dap = NC[C@H](N)C(=O)O; Ph2 = not defined here; GlyNH2 = aminoglycine; βAla = NCCC(=O)O
Molecular target: T1, PKB (Homo sapiens, UniProt P31749)
T1 construct: His; HA; made in house
T1 sequence (P31749 whole entry, species assumed): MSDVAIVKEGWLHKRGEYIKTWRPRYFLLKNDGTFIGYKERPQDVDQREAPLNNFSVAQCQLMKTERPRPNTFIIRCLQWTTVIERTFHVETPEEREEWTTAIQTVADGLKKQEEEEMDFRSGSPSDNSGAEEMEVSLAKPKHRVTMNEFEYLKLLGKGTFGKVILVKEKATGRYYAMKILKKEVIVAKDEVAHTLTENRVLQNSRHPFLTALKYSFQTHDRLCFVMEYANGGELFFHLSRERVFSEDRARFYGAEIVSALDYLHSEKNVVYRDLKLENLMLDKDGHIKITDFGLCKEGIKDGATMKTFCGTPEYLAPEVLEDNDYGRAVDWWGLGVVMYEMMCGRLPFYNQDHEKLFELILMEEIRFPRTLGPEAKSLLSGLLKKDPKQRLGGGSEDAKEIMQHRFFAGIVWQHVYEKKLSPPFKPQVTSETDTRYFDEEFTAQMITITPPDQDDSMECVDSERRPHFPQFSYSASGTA
Assay: PKB in vitro kinase activity assay (soluble His-HA-PKB / SPA bead screening)
Format: biochemical
Parameters: % Inhibition PKB I / % Inhibition PKB II: concentration or dose not given beside the values
Conditions: for PKB-kinase (spa) Assay 1, % inhibition of kinase activity / PKB-kinase (spa) Assay 2, % inhibition of kinase activity: 1 μM compound concentration; for % Inhibition PKB I / % Inhibition PKB II: plate screening, peptide moiety alone

[1] = Table 3, linear 7-mer peptides, read-out: Activity PKB

Compound	PKB-kinase (spa) Assay 1, % inhibition of kinase activity	PKB-kinase (spa) Assay 2, % inhibition of kinase activity	other results
60020-78: Arg-Pro-Arg-Orn-Glu(bAla-5-aminoethylsulfonamide isoquinoline)-Ala-Hol (RPR[Orn]E([βAla-X1])A[hLeu])	21%	24%	–
N=C(N)NCCC[C@H](NC(=O)[C@@H]1CCCN1C(=O)[C@@H](N)CCCNC(=N)N)C(=O)N[C@@H](CCCN)C(=O)N[C@@H](CO)C(=O)N[C@@H](CO)C(=O)N[C@@H](Cc1ccccc1)C(N)=O [AR 60003-52, Arg-Pro-Arg-Orn-Ser-Ser-Phe] (H-RPR[Orn]SSF-NH2; N-terminus and C-terminus assumed)	–	–	IC50 [1]: 2.5 µM
60020-55: Arg-Pro-Arg-Abu-Glu(Gly-5-aminoethylsulfonamide isoquinoline)-Nva-Phe (RPR[Abu]E([Gly-X1])[Nva]F)	20%	40%	–
60020-89: Arg-Pro-Arg-Nle-Glu(bAla-5-aminoethylsulfonamide isoquinoline)-Dab-Phe (RPR[Nle]E([βAla-X1])[Dab]F)	8%	48%	–
CCCC[C@H](NC(=O)[C@H](CO)NC(=O)[C@H](CO)NC(=O)[C@H](CCCC)NC(=O)[C@H](CCCNC(=N)N)NC(=O)[C@@H]1CCCN1C(=O)[C@@H](N)CCCNC(=N)N)C(N)=O [AR 60003-62, Arg-Pro-Arg-Nle-Ser-Ser-Nle] (H-RPR[Nle]SS[Nle]-NH2)	–	–	inhibition at 1 µM (at 1 μM, Table 3, read-out: inhibition (PKB)): 70%
60020-86: Arg-Pro-Arg-Abu-Glu(bAla-5-aminoethylsulfonamide isoquinoline)-Ala-Hol (RPR[Abu]E([βAla-X1])A[hLeu])	−55%	−5%	–
CC[C@H](NC(=O)[C@H](CO)NC(=O)[C@@H](NC(=O)[C@H](CCCNC(=N)N)NC(=O)[C@@H]1CCCN1C(=O)[C@@H](N)CCCNC(=N)N)[C@@H](C)O)C(=O)N[C@H](COC(=O)NCCNS(=O)(=O)c1cccc2cnccc12)Cc1ccccc1 [compound 6013] (H-RPRTS[Abu][X3]-{Ethylenediamine-Isoquinoline5sulfonyl})	–	–	IC50 (chimeric PTR compounds (peptide conjugated to isoquinoline small molecule), read-out: PKB IC50): 4 µM
60006-11B (RPR[Nva][GlyNH2][Dap][Ph2]; reading uncertain) [Compound 60006-11B]	–	–	% Inhibition PKB I: 51%; % Inhibition PKB II: 44%
RPRRSSF-NH2 (C-terminus assumed) [AR 60003-53, Arg-Pro-Arg-Arg-Ser-Ser-Phe]	–	–	IC50 [1]: 3 µM
60006-16A (RPR[Nva][GlyNH2][GltNH2][hLeu]; reading uncertain) [Compound 60006-16A]	–	–	% Inhibition PKB I: 42%; % Inhibition PKB II: 42%
60020-62: Arg-Pro-Arg-Nle-Glu(Gly-5-aminoethylsulfonamide isoquinoline)-Ala-Hol (RPR[Nle]E([Gly-X1])A[hLeu])	29%	38%	–
60020-40: Arg-Pro-Arg-Dap-Glu(Gly-5-aminoethylsulfonamide isoquinoline)-Nva-Hol (RPR[Dap]E([Gly-X1])[Nva][hLeu])	36%	22%	–
60020-94: Arg-Pro-Arg-Nle-Glu(bAla-5-aminoethylsulfonamide isoquinoline)-Ala-Hol (RPR[Nle]E([βAla-X1])A[hLeu])	9%	31%	–
60020-21: Arg-Pro-Arg-Abu-Glu(5-aminoethylsulfonamide isoquinoline)-Ala-Phe (RPR[Abu]E(X1)AF)	−2%	6%	–
RPR[Orn]AT[Orn] [AR 60003-96]	–	–	Activity PKB (Table 3, linear 7-mer peptides): Not active
60020-45: Arg-Pro-Arg-Orn-Glu(Gly-5-aminoethylsulfonamide isoquinoline)-Ala-Phe (RPR[Orn]E([Gly-X1])AF)	29%	53%	–
60020-96: Arg-Pro-Arg-Nle-Glu(bAla-5-aminoethylsulfonamide isoquinoline)-Nva-Hol (RPR[Nle]E([βAla-X1])[Nva][hLeu])	0%	54%	–
60020-71: Arg-Pro-Arg-Dap-Glu(bAla-5-aminoethylsulfonamide isoquinoline)-Nva-Phe (RPR[Dap]E([βAla-X1])[Nva]F)	32%	46%	–

More lines, main results first:

PKB-kinase (spa) Assay 1, % inhibition of kinase activity	PKB-kinase (spa) Assay 2, % inhibition of kinase activity	Compound	other results
26%	31%	60020-14: Arg-Pro-Arg-Orn-Glu(5-aminoethylsulfonamide isoquinoline)-Ala-Hol (RPR[Orn]E(X1)A[hLeu])	–
38%	38%	60020-76: Arg-Pro-Arg-Orn-Glu(bAla-5-aminoethylsulfonamide isoquinoline)-Orn-Hol (RPR[Orn]E([βAla-X1])[Orn][hLeu])	–
14%	38%	60020-30: Arg-Pro-Arg-Nle-Glu(5-aminoethylsulfonamide isoquinoline)-Ala-Hol (RPR[Nle]E(X1)A[hLeu])	–
16%	35%	60020-73: Arg-Pro-Arg-Orn-Glu(bAla-5-aminoethylsulfonamide isoquinoline)-Dab-Phe (RPR[Orn]E([βAla-X1])[Dab]F)	–
20%	47%	60020-56: Arg-Pro-Arg-Abu-Glu(Gly-5-aminoethylsulfonamide isoquinoline)-Nva-Hol (RPR[Abu]E([Gly-X1])[Nva][hLeu])	–
46%	26%	60020-5: Arg-Pro-Arg-Dap-Glu(5-aminoethylsulfonamide isoquinoline)-Ala-Phe (RPR[Dap]E(X1)AF)	–
32%	26%	60020-19: Arg-Pro-Arg-Abu-Glu(5-aminoethylsulfonamide isoquinoline)-Orn-Phe (RPR[Abu]E(X1)[Orn]F)	–
25%	26%	60020-64: Arg-Pro-Arg-Nle-Glu(Gly-5-aminoethylsulfonamide isoquinoline)-Nva-Hol (RPR[Nle]E([Gly-X1])[Nva][hLeu])	–
18%	28%	60020-18: Arg-Pro-Arg-Abu-Glu(5-aminoethylsulfonamide isoquinoline)-Dab-Hol (RPR[Abu]E(X1)[Dab][hLeu])	–
29%	40%	60020-61: Arg-Pro-Arg-Nle-Glu(Gly-5-aminoethylsulfonamide isoquinoline)-Ala-Phe (RPR[Nle]E([Gly-X1])AF)	–
−21%	60%	60020-83: Arg-Pro-Arg-Abu-Glu(bAla-5-aminoethylsulfonamide isoquinoline)-Orn-Phe (RPR[Abu]E([βAla-X1])[Orn]F)	–
